Assay results published in publication PMC8906541, “A conserved arginine in NS5 binds genomic 3′ stem–loop RNA for primer-independent initiation of flavivirus RNA replication”.

Columns and labels:
NS5 WT [1] = biological target: T1, NS5 WT (Dengue virus 2, UniProt A9LIC9 2492-3391); assay: EMSA; Kd value only in figure; >100-fold excess yeast tRNA does not affect binding; details: protein: recombinant; tags: N-terminal His6-TEV, cleaved; stem-loop
NS5 WT [2] = biological target: T1, NS5 WT; assay: EMSA; Kd stated only as micromolar range; value in figure; details: protein: recombinant; tags: N-terminal His6-TEV, cleaved; stem-loop

Binder	binding result (NS5 WT [1])	binding result (NS5 WT [2])
3'SL (structured_RNA) RNA: AGAUCCUGCUGUCUCCUCAGCAUCAUUCCAGGCACAGAACGCCAGAAAAUGGAAUGGUGCUGUUGAAUCAACAGGUUCU	binds	–
5'SLA (structured_RNA) RNA: AGUUGUUAGUCUACGUGGACCGACAAAGACAGAUUCUUUGAGGAAGCUAAGCUUAACGUAGUUCUAACAG	–	binds
